Test results: article PMC5777263

Legend:
[1] = target: Cupriavidus metallidurans Betaproteobacteria proteasome homolog (Cm-BPH) (Cupriavidus metallidurans); assay: crystal structure; Cm-BPH, space group P6, 2.1 Å, two monomers in the ASU; dodecamer called non-native, malonate molecules intercalated in the intersubunit clefts
[2] = target: Cupriavidus metallidurans Betaproteobacteria proteasome homolog (Cm-BPH) (Cupriavidus metallidurans); assay: AUC + SEC-MALS; sedimentation velocity: 0.5 mg/ml protein in buffer A, 20 °C, 40,000 rpm; SEC-coupled multiangle light scattering; self-assembly
[3] = target: Cupriavidus metallidurans Betaproteobacteria proteasome homolog (Cm-BPH) (Cupriavidus metallidurans); assay: SEC-SAXS; Shodex Kw-403 column, 20 °C, 20 mM HEPES-NaOH pH 8.0, 150 mM NaCl, 2 mM TCEP, 1% sucrose; Cm-BPH 8.25 mg/ml, Td-BPH 15 mg/ml; profiles fitted with dodecameric and tetradecameric crystal models (FoXS)
[4] = target: Cupriavidus metallidurans Betaproteobacteria proteasome homolog (Cm-BPH) (Cupriavidus metallidurans); assay: negative-stain electron microscopy; 0.1 mg/ml protein, 1% uranyl acetate, particles classified and averaged (EMAN2)
[5] = target: Thiobacillus denitrificans Betaproteobacteria proteasome homolog (Td-BPH) (Thiobacillus denitrificans); assay: AUC + SEC-MALS; sedimentation velocity: 0.5 mg/ml protein in buffer A, 20 °C, 40,000 rpm; SEC-coupled multiangle light scattering; self-assembly
[6] = target: Thiobacillus denitrificans Betaproteobacteria proteasome homolog (Td-BPH) (Thiobacillus denitrificans); assay: crystal structure; Td-BPH apo: hexagonal form P6(1)22 (100 mM sodium acetate pH 4.8, 1.2 M sodium nitrate) and orthorhombic form P2(1)2(1)2(1) (100 mM HEPES-NaOH pH 7.0, 600 mM NaF), 2.3 Å
[7] = target: Thiobacillus denitrificans Betaproteobacteria proteasome homolog (Td-BPH) (Thiobacillus denitrificans); assay: SEC-SAXS; Shodex Kw-403 column, 20 °C, 20 mM HEPES-NaOH pH 8.0, 150 mM NaCl, 2 mM TCEP, 1% sucrose; Cm-BPH 8.25 mg/ml, Td-BPH 15 mg/ml; profiles fitted with dodecameric and tetradecameric crystal models (FoXS)
[8] = target: Thiobacillus denitrificans Betaproteobacteria proteasome homolog (Td-BPH) (Thiobacillus denitrificans); assay: negative-stain electron microscopy; 0.1 mg/ml protein, 1% uranyl acetate, particles classified and averaged (EMAN2)

Substance	stoichiometry N [1]	stoichiometry N [2]	stoichiometry N [3]	stoichiometry N (subunits per ring) [4]	stoichiometry N [5]	stoichiometry N [6]	stoichiometry N [7]	stoichiometry N (subunits per ring) [8]
Cupriavidus metallidurans Betaproteobacteria proteasome homolog (Cm-BPH) (enzyme)	12 subunits	13.8 subunits	14 subunits	7				
Thiobacillus denitrificans Betaproteobacteria proteasome homolog (Td-BPH) (enzyme)					14 subunits	14 subunits	14 subunits	7
